B1: TPP-17578 (497A-M128-B10-1-hIgG1Lambda), WT (antibody, V domains shown)
VH: EVQLLESGGGLVQPGGSLRLSCAASGFTFSNAWMSWVRQAPGKGLEWVSGINWNGGSTGYADSVKGRFTISRDNSKNTLYLQMNSLRAEDTAVYYCVRTYSGHYGPYFDNWGQGTLVTVSS
VL: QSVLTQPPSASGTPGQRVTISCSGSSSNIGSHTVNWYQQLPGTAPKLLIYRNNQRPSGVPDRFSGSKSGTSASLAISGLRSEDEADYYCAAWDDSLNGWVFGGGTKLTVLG
B2: TPP-19546 (17578-gl33-hIgG1Lambda), wild type (antibody, V domains shown)
VH: EVQLLESGGGLVQPGGSLRLSCAASGFTFSSAWMSWVRQAPGKGLEWVSGISWSGGSTGYADSVKGRFTISRDNSKNTLYLQMNSLRAEDTAVYYCARTYSGHYGPYFDYWGQGTLVTVSS
VL: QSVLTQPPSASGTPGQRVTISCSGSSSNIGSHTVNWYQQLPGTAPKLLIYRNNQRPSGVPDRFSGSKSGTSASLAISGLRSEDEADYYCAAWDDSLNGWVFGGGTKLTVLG
B3: TPP-19546, afucosylated (antibody, human IgG1, lambda, V domains shown)
VH: EVQLLESGGGLVQPGGSLRLSCAASGFTFSSAWMSWVRQAPGKGLEWVSGISWSGGSTGYADSVKGRFTISRDNSKNTLYLQMNSLRAEDTAVYYCARTYSGHYGPYFDYWGQGTLVTVSS
VL: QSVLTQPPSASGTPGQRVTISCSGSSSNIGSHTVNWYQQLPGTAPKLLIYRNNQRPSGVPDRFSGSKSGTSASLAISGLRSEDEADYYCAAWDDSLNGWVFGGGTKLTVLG
modifications: afucosylated (no fucose on the N-glycan at N297)
B4: TPP-17578 (497A-M128-B10-1-hIgG1Lambda), afucosylated (antibody, V domains shown)
VH: EVQLLESGGGLVQPGGSLRLSCAASGFTFSNAWMSWVRQAPGKGLEWVSGINWNGGSTGYADSVKGRFTISRDNSKNTLYLQMNSLRAEDTAVYYCVRTYSGHYGPYFDNWGQGTLVTVSS
VL: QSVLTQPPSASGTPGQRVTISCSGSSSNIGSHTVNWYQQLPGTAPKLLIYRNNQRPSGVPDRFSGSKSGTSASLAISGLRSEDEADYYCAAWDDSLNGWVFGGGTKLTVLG
modifications: afucosylated N-glycan at N297
B5: TPP-21045 (17578-gl79-hIgG1-wt-Lambda), wild type (antibody, V domains shown)
VH: EVQLLESGGGLVQPGGSLRLSCAASGFTFSSAWMSWVRQAPGKGLEWVSGISWSGGSTGYALSVKGRFTISRDNSKNTLYLQMNSLRAEDTAVYYCARTYSGHYGPFFDYWGQGTLVTVSS
VL: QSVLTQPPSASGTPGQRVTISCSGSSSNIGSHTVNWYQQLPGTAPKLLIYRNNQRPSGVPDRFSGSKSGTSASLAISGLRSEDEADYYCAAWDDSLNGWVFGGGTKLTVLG
B6: TPP-19546 (17578-gl33-hIgG1Lambda), afucosylated (antibody, V domains shown)
VH: EVQLLESGGGLVQPGGSLRLSCAASGFTFSSAWMSWVRQAPGKGLEWVSGISWSGGSTGYADSVKGRFTISRDNSKNTLYLQMNSLRAEDTAVYYCARTYSGHYGPYFDYWGQGTLVTVSS
VL: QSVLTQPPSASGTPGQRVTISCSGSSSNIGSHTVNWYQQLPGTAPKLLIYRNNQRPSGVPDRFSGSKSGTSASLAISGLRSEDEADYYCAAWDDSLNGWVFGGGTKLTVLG
modifications: afucosylated (no fucose on the N-glycan at N297)
B7: TPP-17577 (497A-M178-K09-1-hIgG1Lambda), WT (antibody, V domains shown)
VH: EVQLLESGGGLLQPGGSLRLSCAASGFTFSNAWMSWVRQAPGKGLEWVAVISYDGRNKYSADSVKGRFTISRDNSKNTLYLQMNSLRAEDTAVYYCARGLPYGYWGQGTLVTVSS
VL: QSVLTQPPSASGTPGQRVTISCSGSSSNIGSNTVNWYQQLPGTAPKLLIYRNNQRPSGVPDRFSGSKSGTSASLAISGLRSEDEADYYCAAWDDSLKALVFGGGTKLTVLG
B8: TPP-17577 (497A-M178-K09-1-hIgG1Lambda), afucosylated (antibody, V domains shown)
VH: EVQLLESGGGLLQPGGSLRLSCAASGFTFSNAWMSWVRQAPGKGLEWVAVISYDGRNKYSADSVKGRFTISRDNSKNTLYLQMNSLRAEDTAVYYCARGLPYGYWGQGTLVTVSS
VL: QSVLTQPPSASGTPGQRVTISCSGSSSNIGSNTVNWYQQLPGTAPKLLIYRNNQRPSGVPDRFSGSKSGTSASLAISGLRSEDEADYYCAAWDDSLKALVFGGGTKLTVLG
modifications: afucosylated N-glycan at N297

Legend:
Test in all cases: cell-based or functional assay
[1] = biological target: human CCR8 (P51685_CCR8_HUMAN) (human, UniProt P51685 1-355)
human CCR8 [2] = biological target: T1, human CCR8 (human, UniProt P51685 1-355)
human CCR8 [3] = biological target: T1, human CCR8; remark: listed apart in the source
human CCR8 [4] = biological target: human CCR8 (human, UniProt P51685 1-355); remark: listed apart in the source
human CCR8 [5] = biological target: T1, human CCR8; remark: listed apart in the source

Binder	ADCC EC50, activated Tregs + NK92v, Donor 1730 [1]	ADCC Max Response, activated Tregs + NK92v, Donor 1213 [1]	ADCC Max Response, activated Tregs + NK92v, Donor 1730 [1]	ADCP EC50 (pM); activated human Tregs donor 1163 + M2c donor 2 (human CCR8 [2])	ADCP Max Response (%); activated human Tregs donor 1163 + M2c donor 2 (human CCR8 [2])	ADCP Max Response (%); activated human Tregs donor 1163 + M2c donor 1 (human CCR8 [3])	also measured
B1	197000 nM	5%	8%				
B2				~1.69e+07 pM	18%	14%	
B3							ADCC Max Response (%); activated human Tregs (Donor 1100) as target cells, NK92v effector cells (human CCR8 [4]): 54%; ADCC hTreg EC50 (pM); activated human Tregs (Donor 1100) as target cells, NK92v effector cells (human CCR8 [4]): 8840 pM
B4	19 nM	25%	38%				ADCC EC50, activated Tregs + NK92v, Donor 1213 [1]: 9.2 nM
B5				162 pM	27%	27%	ADCP EC50 (pM); activated human Tregs donor 1163 + M2c donor 1 (human CCR8 [3]): 130 pM
B6				404 pM	18%	15%	ADCP Max Response (%); activated human Tregs donor 1212 + M2c macrophages (human CCR8 [5]): 20%
B7		10%	13%				
B8	4.57 nM	41%	40%				ADCC EC50, activated Tregs + NK92v, Donor 1213 [1]: 1.85 nM

Source: patent US20240376218A1 (published 2024)
